In a protein production outcome set (Wang et al. 2014) one finds protein production data, which are given here for 17 sequences.
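Further: failed if final PepcDB status was selected cloned or expressed and not failed if soluble or beyond.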

This data set in a line: label from the status in PepcDB records.
For “MKFLRLLKHPASTAPGRAFQLYPWQERIVRAIYGPRHPDGSRIVKTVFLLVPRGNRKTSLAAALALLHTLGPERVPAGQVIFAACDREQAGIGFREAANIIRADKRLVAATRIYDAHNSAKKIVFRAEDVTLSAISSDGGAQHGRTPAFTLIDELHAWKGRDLWEALKSGTAKVADSLTVIATTAGRGADTVAAEQYAYALAVARGEIVNPAFLPILFAPEPGDDWTDEATWHKVNPGLRHGFPSLEGLRTLAKEAEGRPSDAYAFRQFNLNEWMANSRDPLFDFDTYDARRFAEDLDELEGLPCWIGVDLSISGDLSAVVAAWKHPDGQISVKPWFWVPGDDLKVRADRDGVPYERWRDEGHLIATPGAIIDQSAVADQIRELCARFDAQEVAFDPHLARPMMQSLYDEGLPVVEMRQAPLTMGVAAGDLERVVNGRLIRHDGHPVLRNHLQNVCASRSESGLIRMHKVQRTSRIDGAVAAAMAVSRAVAADSRKSAYSDPEAEGLFVF”, the protein production entry is on record as “failed”. Then “PRMIVFGAIDFASALARAGKFLGHHVTVCDARPVFATPARFPDADEVVVEWPHEYLARTAVDARTVLCVLTHDAKFDIPLLRLALRLPVAYVGAMGSRRTHLDRAARLREAGV”, with “failed”; and “MLLTQYEKYKRGFKFDHVWPILKGIEKFANDNMMTPASSPSPGMNSIDLNMDSEDANFSLSSRPMGLKKTKLKQLLEQNDKLIKAITKGTSERNEIQRQKIEVDRMKEENKILFADLNSISDPSSRAYIENERKRILEKRAQTNQHEEDGEGSQYHGSQYRASHYQESPSHGKQVQGEPDQGEDQRSPNNQEDFTQYYNYLSGTENIFP”, with “failed”.

As for “MSLRPQTSFIFDLDGTLTDSVYQNVAAWKEALDAENIPLAMWRIHRKIGMSGGLMLKSLSRETGMSITDEQAERLSEKHAQAYERLQHQIIALPGAVELLETLDKENLKWCIATSGGIDTATINLKALKLDINKINIVTRDDVSYGKPDPDLFLAAAKKIGAPIDECLVIGDAIWDMLAARRCKATGVGLLSGGYDIGELERAGALRVYEDPLDLLNHLDEIASREGHHHHHH”, the protein production entry was “not failed”. For “YLIKFDRIAVPMAEGRSSRRVLHIAFAFASAMGSEITAITVRDQAKDITWTNKITVVTNAYKEGLSQNIKVVPKILTSSDVKSALVEELNRHSYDIVIIASEKRSIITRITSGPVSNYVIKKSNIPTALV” the value was “failed”; for “MLKAYRYRIYPTKAQEEFFEKAFGCCRFVWNKMLEEKLEALKQGKKVPRITPARYKKEYPFLREVDSLALANVQMKQEKAFKDFFKNPKHFGIPKFKRKKDKQSYTTNNQQTKSGNETIRVDFEKGLLYLPKVKSGIKAVFHREFEGKIKSATVVKTKAGRYYVSILVDVQDPRNKEVNRIFENEITKRENFICGIDTGLISFVTIANDTGISKIEYPKYLIKAEKRLKRLQRQLSRKKEGSKNWEKARERLAKEYEYVKNSREDFLHKISKTIIDENQVVVVESLNVKGLSRTRLSKHILDSSWSKFLRYLKYKADWYGRKVIEADRSFPSSKMCSRCGYINKELKLKDRVWKCPKCKAVHDRDENAAKNLKNYGIAYIRNQ”, “failed”. Then “RKIFTNKCERAGCRQREMMKLTCERCSRNFCIKHRHPLDHDCSGEGHPTS”, with “not failed”; and “MNYSIRLFKIMGIPIELHITFILFLVVIIGLSIMNNSIFWAVLFILLFVSVVLHELGHSYVAKKYGVKIEKILLLPIGGVAMMDKIPKEGELRIGIAGPLVSFIIGIVLLIVSQFFDININGYPLLYTLSLLNLMLGGFNLIPAFPMDGGRILRAILSKKYGYLKSTKIAANIGKSLALIMLLFGLLSMNIILILVSLFVYFGAEQESRVVEVETIFKNIKAKDIMTPNPVYVTPDMSIEEFLDFMLKHKYFGYPVVENGKLVGCIGIGNIHKKEGTVRDYMEKPVVVSEDTDIKEILRKMANTDRVFVVEGGKLKGIISKTDILRAMSILELKEELKD”, with “failed”; and “MSGSQPGRDKAIPAPRPTADIWENPDQLPADRGDLIKAKLTPAVITIFLRNNLKRIALLASALFVLGMIVLWLLPVRYAATALVMVDPREQRVTTDQEVLPGIGQDAAALQSLIEIAKSDGFLRPLVEKLKVAEDHEIAGSETDPARVLDRFRKHLEIARRGLTYVIEMTFVAKDPQRAAYYANAVAEAFVASQTQVRAVAADEAAGWLSSRLKTLNEKLRASEDAVAAFKTQYRIVDAGRESTTRQLRVTELTQQVSAARLRTEEAKNRYEQAQRDLKSDVDGSTGSKSDLVSVLRTQRTQLNDQIAQKRAVLGDRHPELVIAYNQLAELNRQIEAERKRNIVSAKSDYDAMRDQLKALEQQLKSLETEMLGDDQAAVKLKELQREANANRAIYEQFLERYNTTNQQRLLQATQTKVASFATPPTRPTRPPLLVLIAAIAVASILVSIAVVAMLASLSNQPEQADNSGPPEGATAPVPVEAAATSAAEPIEEKKPAADYSNLPIVLRIPDLSGARTLGGKLAMLGGERRLDHYVVGLLDAIGVKPSQRGMVVLVTSVDPGAGKSSVARALNAIAVDRGMLSVVIEVAGQARSVPAAPSNRAEPDGGALVRVLKTTIPSVVRLIASEPDVSAQNDVRSEFDLILIDAPALATQTEVAEIAAHTDLNLLVIDSAVTEAGAALEAQALLSRRGHAPAGVVVNKAGAQPAPAAVPAARLAS”, with “failed”. Regarding “MNKGILIVLLAGLVSACTHKEKNPLDSLPDMSAVRANLAFTCVHEADHLPPLDPEADQLFQYGRYLQKKEGPKNFNEVARYYRIAAAYGHYKANSNLQGLVSQGIADSPDAPKETIDLAAQLVNQGIPGGYYDIGHYLELGYGLKQDPEMALRYIRKAADLGNPDAQFYVAEKLAPIDNAPAIARQMWQCATDQGHGRAALTLGVDLKTDKLYPDAAKAFQQGAKSGSSTAALSLRDAFHNPSQSDQLNYLAVPHDPERSRRYGLIWKFLKDNDGRSPKVPDIDKIVPLPPAKLPPWDGTFQWEKDQAAAVPPQKPSDELIERLSKAKHLDPATGLPLAKPEQVAQMETEAAPPPARLPLGTIARTGDSCPQDGVWCVSLAKGMVADAEQSFLKGMELPSLTIYQPRRFAWMDNWMGVRQQTVPVAWKLVGYIHEA”, the protein production entry is given as “failed”. As to “MILGEIMEVLAFKNQSLIDHVNDMVKYWERIKYRYLKTIKRALEALNIKLDIEKVDEFMKILIKLHDIGKASKIYQRAIINDQEKLMGFRHELVSAYYTYHILLKKFGDKNLAFIGALTVMLHHEPIIMGQIRNLKKKELTAEVVLDKLKKFDGMIEDFEDLIKKLIGYSIGDIIKNDSNKDDIIRFVIEMSVRARHTPNSEKLRFIVGTLLLPLVMCDYKGAESREGKAPKFAEVLEVESYVI”, the protein production entry is listed as “not failed”.

Consider “MASDPITTQEFSPRQNAVLDQALRLLVEGGEKALTTSGLARAANCSKESLYKWFGDRDGLLAAMITFQQSKVRTFEKAGDRVSAPQLADHLEVFAHDLLDVLAGDVSLALNRLAIGQASRDGSKLGDLLLERGRRQIDRRARGLIEAGRRSGYLRFDDAEEAYRSFYGLIVSDLHVRMLLGEAPDKDFSARAKKAVVAFLTLYGTEKVHSELGGKVA”, for which the protein production entry is reported as “not failed”.

For the sequence “NVVLRILAWLLAVGLVVLPVVAVLNGWVGAERWPLAKLRVSGDFKRVSAEELRAVVLPYVRSGFFAVRLPQVQDAVERLPWVERAHVSKRWPDVLEVSVVEHQPFARWGSDRMLSEQGRLFPVPGGLKNLKLPQLGGPDMKVRDVVALYKASSALFASTGLDVSWLQMDARGSWSLGLSNGLQIFVGRDDARARLERFARVLPQLLDPQRPVVRADLRYTN”, the protein production entry was “failed”. In the case of “MIPDLVPVSLTPVTVVPNTVNTMTATIENQGNKDSTSFNVSLLVDGIVVDTQTVTSLESENSTNVDFHWTLDGTANSYTLTVNVDPENAVNEGNESNNTLTALVGTLEHHHHHH”, the protein production result is recorded as “not failed”. Then “MQKPHLLITSAGRRAKLVEYFVKEFKTGRVSTADCSPLASALYMADQHYIVPKIDEVEYIDHLLTLCQDEGVTALLTLIDPELGLLAQATERFQAIGVTVIVSPYAACELCFDKYTMYEYCLRQGIAHARTYATMASFEEALAAGEVQLPVFVKPRNGSASIEVRRVETVEEVEQLFSKNTDLIVQELLVGQELGVDAYVDLISGKVTSIFIKEKLTMRAGETDKSRSVLRDDVFELVEHVLDGSGLVGPLDFDLFDVAGTLYLSEINPRFGGGYPHAYECGVNFPAQLYRNLMHEINVPQIGQYLDDIYMLKHDTVTLISAAELQKIKR”, with “not failed”; and “MPGEEVSQAKQQLKLIIDAYLSESDVDNVLAACDFADLAHSGITRKSGEPYILHPIAVSCILAHMRLDAETLMAALLHDVIEDTEHTKDEIGERFGEVVADLVDGVTKLTHSSDKQYNKAASFRKILQATLQDPRVIIIKLADRYHNMTTLDALRPDKRARIAQETFDIFVPMARIVGMNEMGDNLELLCYQNLDLDMYNNVQEALLETKPRRCEYQTKWEHHLGELLTTYHIHGRVKKKNNNIELLRHFVKNEIDLQELTHSHAFEIILNSISDCDRLVDALKENFQILHFEDHIRRPLPGGNQSIMMKLKGEQTTLSLTIQTELMRKAARFGVVLGENAPQACRSAIQASMQNLTTLIDGECAKTTFNDLLDYLHQEKIWVYTPHGHLHELPQGATVIDFAYSASLFLGNHAVGAKIDGEIRPLSTPLVSGQVIDVITDVLATPNPDWLSFINTQKARRAIQNMLRDQDIEEQLLVGQQALNRALKLFNRSMHDLSESDWLNVLQWRHVENKEALFEQIAVGDLLPQLVANHLYAQDTSDKTGHAPDRLIQGTEGVDVKYAHCCNPILGDPIQGHLSRRGLIVHRARCHNLLHEQHLHPENIMPLQWTSDDLDDVSFTAYLCIDMPLDGEQISELIYLCRKSHTGVEMVQPHGDHTYVNIVVNNRKVVAQIIRDLRMLFGFPRVSRLFTPAAVTESVKIKVS”, with “failed”. As to “MPHASQIVISISLFLMSMVAVAQKTIDIKKFNLVAEQVTELKKTDLVLSLKQLTTFENVLSALTVEQNLVYFKLLAEIQIEQNRYSAAKKTANEGLIIGRRLASPSILMSELLYLRGFSFESLGNIPRATKEYKKGLEVAESLHNKIQVALGLINLGAIAYLTDNYKRSLVLLNDAYNIAGQTDDEELKGTANTELGILYSLLRQGDQSMAYYQQSYKHFKKAGLLLSAHNSLHNIAITHIREKRYEQAITVFKTIIAESNKDTSSDSMFTVYSGMAWAHLKKKDSNIDAAHQYLLLAKQYLQFTEKVDYRLQFYFDEASVLYKLERFDEVLISIARIEKILVNHEDMPKRKRKGYVNIINLKAKVFYKQEKFKQAYETKSRVIALTEKLYENEDNRSIAQVRLKLEAEQADKQNEILNNQKSRYEASFNEAKLENEEQRIYLIISALLALAFAWVLVKLIQSQKKLKVALNVDKLTGTANRRRLMVKSQQAFELAKVKQYHLSLMMINIDHFKGINDSLGHSIGDEVLAKVAFIGANMVRKNDVFGRFSGGEFMVCLPKTNLKLAMETAECIRAAINEHTWQLNNIEKISVSIGVATLTDDSELISLVKRAEEQLYQAKASGKNKVCAQ”, the protein production entry was “failed”.
